In US20220204643A1 (published 2022):
One block for each binder: values may come before it.

Columns and labels:
[1] = biological target: T1, microtubule associated protein RP/EB family member 2, transcript variant 1 (human, UniProt Q15555 1-327)
T1 construct: also called MAPRE2

PAGE family member 2 = biological target: T2, PAGE family member 2 (human, UniProt Q7Z2X7 1-111)
T2 construct: HuProt array protein, full-length recombinant from yeast; also called PAGE2
T2 sequence: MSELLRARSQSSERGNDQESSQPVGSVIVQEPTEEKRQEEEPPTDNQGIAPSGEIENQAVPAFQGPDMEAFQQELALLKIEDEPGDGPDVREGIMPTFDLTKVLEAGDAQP

[2] = biological target: T3, keratin associated protein 12-3 (human, UniProt P60328 1-96)
T3 construct: HuProt array protein, full-length recombinant from yeast; also called KRTAP12-3
T3 sequence: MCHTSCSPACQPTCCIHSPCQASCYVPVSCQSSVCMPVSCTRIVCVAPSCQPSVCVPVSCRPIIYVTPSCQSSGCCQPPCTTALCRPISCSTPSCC

[3] = biological target: T4, interleukin 27 receptor subunit alpha (human, UniProt Q6UWB1 33-636, limits assumed)
T4 construct: also called IL27RA
T4 sequence: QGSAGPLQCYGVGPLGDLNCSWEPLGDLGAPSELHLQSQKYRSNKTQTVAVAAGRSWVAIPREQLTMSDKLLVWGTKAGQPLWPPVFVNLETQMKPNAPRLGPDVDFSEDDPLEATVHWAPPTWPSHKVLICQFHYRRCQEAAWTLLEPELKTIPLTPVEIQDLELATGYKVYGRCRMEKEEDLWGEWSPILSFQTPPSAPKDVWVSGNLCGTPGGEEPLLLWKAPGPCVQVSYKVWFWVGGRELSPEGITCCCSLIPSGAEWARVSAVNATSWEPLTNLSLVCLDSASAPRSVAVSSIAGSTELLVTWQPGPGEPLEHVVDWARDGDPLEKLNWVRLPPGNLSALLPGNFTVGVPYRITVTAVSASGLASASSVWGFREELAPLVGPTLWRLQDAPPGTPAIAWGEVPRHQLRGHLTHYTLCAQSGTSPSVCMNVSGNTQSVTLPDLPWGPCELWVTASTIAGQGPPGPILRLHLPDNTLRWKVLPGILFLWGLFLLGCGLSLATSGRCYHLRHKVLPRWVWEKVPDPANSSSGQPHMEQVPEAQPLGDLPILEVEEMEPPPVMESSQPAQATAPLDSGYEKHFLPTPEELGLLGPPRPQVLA

[4] = biological target: T5, serpin family B member 6, transcript variant 2 (human, UniProt P35237 1-376)
T5 construct: HuProt array protein, full-length recombinant from yeast; also called SERPINB6
T5 sequence: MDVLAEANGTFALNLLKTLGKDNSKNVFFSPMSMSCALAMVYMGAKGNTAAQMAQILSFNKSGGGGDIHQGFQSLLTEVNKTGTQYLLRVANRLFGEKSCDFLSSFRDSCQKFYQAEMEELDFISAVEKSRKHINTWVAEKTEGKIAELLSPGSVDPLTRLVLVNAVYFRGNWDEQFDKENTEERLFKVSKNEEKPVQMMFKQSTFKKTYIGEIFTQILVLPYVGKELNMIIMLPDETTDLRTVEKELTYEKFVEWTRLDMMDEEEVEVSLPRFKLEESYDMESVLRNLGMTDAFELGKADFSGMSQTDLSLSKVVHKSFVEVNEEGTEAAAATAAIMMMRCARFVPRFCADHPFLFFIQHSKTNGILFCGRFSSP

enolase 2 = biological target: T6, enolase 2 (human, UniProt P09104 2-434)
T6 construct: HuProt array protein, full-length recombinant from yeast; also called ENO2
T6 sequence (P09104 2-434 limits assumed): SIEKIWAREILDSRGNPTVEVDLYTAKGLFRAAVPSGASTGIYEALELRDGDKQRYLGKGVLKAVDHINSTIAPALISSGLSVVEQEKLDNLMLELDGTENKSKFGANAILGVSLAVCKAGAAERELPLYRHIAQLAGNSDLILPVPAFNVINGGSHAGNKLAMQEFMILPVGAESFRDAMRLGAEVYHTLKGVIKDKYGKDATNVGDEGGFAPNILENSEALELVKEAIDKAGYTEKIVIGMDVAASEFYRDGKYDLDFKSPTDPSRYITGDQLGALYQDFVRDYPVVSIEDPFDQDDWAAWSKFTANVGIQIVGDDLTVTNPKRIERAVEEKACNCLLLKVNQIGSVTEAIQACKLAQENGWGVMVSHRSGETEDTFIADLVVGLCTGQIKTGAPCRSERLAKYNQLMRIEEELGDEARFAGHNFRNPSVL

[5] = biological target: T7, Jupiter microtubule associated homolog 2 (human, UniProt Q9H910 1-190)
T7 construct: HuProt array protein, full-length recombinant from yeast; also called HN1L
T7 sequence: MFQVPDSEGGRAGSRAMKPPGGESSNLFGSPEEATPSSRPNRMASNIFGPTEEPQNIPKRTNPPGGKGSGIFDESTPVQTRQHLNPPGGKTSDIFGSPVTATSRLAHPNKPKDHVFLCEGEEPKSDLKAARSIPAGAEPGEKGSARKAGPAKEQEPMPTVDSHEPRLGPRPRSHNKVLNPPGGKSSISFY

BTB domain containing 8 = biological target: T8, BTB domain containing 8 (human, UniProt Q5XKL5 1-374, limits assumed)
T8 construct: HuProt array protein, full-length recombinant from yeast; also called BTBD8
T8 sequence (Q5XKL5 other isoform, or with tags, fused parts or gaps limits assumed): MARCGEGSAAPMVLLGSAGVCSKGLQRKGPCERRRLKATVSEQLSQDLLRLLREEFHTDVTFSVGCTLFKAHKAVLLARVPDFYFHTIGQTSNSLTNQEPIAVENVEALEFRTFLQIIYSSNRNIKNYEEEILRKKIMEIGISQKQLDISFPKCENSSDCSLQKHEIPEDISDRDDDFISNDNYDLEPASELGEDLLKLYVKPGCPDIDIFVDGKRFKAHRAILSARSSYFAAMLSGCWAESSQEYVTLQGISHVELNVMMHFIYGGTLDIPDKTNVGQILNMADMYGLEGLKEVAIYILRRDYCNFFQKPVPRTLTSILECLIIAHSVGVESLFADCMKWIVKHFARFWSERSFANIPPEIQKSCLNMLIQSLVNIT

[6] = biological target: T9, Dpy-30 histone methyltransferase complex regulatory subunit (human, UniProt Q9C005 1-99)
T9 construct: HuProt array protein, full-length recombinant from yeast
T9 sequence (Q9C005 whole entry, one chain of several): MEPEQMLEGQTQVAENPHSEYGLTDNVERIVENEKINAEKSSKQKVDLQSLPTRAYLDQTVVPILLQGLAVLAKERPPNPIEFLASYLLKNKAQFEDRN

[7] = biological target: T10, rhophilin associated tail protein 1 like, transcript variant 2 (human, UniProt Q96C74 1-230)
T10 construct: HuProt array protein, full-length recombinant from yeast; also called ROPN1L
T10 sequence: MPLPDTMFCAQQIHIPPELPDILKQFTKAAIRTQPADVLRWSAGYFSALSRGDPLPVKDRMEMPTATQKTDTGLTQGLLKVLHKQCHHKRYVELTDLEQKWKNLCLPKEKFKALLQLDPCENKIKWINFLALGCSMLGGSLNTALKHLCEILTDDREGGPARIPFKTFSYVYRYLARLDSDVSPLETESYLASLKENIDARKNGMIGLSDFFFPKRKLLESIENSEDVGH

[8] = biological target: T11, methionyl-tRNA synthetase 1 (human, UniProt P56192 1-900)
T11 construct: HuProt array protein, full-length recombinant from yeast; also called MARS
T11 sequence: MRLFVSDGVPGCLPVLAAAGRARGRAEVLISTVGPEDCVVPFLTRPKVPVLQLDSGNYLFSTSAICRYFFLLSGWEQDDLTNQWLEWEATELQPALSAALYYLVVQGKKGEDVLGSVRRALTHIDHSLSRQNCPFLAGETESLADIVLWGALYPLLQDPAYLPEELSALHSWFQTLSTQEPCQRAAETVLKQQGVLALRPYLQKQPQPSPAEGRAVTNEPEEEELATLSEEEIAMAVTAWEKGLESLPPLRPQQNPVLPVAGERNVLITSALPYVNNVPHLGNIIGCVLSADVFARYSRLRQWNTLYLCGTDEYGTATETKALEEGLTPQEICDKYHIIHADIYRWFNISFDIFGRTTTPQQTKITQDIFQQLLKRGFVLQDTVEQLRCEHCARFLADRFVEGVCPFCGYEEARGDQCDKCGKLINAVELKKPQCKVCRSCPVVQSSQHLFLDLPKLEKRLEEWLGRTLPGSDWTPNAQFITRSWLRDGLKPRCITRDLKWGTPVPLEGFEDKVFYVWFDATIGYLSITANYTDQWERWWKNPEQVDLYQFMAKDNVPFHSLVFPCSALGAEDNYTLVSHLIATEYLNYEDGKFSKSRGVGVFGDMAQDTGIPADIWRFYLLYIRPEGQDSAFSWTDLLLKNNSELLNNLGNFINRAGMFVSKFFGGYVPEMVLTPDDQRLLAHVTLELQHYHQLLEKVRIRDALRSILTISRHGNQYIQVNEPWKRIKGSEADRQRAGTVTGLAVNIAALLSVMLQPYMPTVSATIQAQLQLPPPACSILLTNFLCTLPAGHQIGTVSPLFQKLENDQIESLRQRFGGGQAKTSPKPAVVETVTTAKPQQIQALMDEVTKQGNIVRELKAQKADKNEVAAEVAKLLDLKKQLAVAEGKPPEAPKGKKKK

T1 sequence (Q15555 whole entry, change not shown): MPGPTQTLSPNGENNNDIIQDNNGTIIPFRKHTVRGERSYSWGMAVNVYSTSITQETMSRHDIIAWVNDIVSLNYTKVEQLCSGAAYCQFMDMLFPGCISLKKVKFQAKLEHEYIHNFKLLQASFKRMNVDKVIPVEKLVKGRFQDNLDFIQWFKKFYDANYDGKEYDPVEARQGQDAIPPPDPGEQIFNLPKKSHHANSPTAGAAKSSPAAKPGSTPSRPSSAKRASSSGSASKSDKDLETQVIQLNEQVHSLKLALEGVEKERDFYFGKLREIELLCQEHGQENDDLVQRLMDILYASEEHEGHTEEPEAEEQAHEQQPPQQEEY

B5: TMEL1037 (antibody, V domains shown)
VH: PLQLQESGPGLVKPSETLSLTCTVSGGSISSSSYYWGWIRQSPGKGLEWMGSIYYSGSTYYNPSLKSRVTISVDTSKNQFSLNLSSVTAADTAVYYCARHDYRNYFDYWGQGTLVTVSS
VL: not shown
notes: detected with anti-human IgG Fc
binding result (enolase 2): binds

B6: TMES1002 (antibody, V domains shown)
VH: QVQVVESGGGLVKPGGSLRLSCAVSGLDFRDYYVNWIRQAPGKGLEWLSYITSPGGHTSYSDSVKGRFTISRDNAKNSVYLQMDSLTVEDTAVYFCAIKEGYGLSDWGQGTLVTVSS
VL: EIVLTQSPVTLSLSPGERATLSCRASQSVSSSYIAWYQQKPGQAPRLLIYGASTRATGIPDRFSGSGSGTDFTLTISRLEPEDCAVFYCQQYGSSHYTFGQGTKLEIKR
notes: as for B5
binding result [5]: binds
binding result (BTB domain containing 8): binds

B7: TMEL1041 (antibody, V domains shown)
VH: EVQLLESGGGLVQPGGSLRLSCAASGFTFRIYAMSWVRQAPGKGLEWVSAISYSGNTTYYADSVKGRFTISRDNSKNTLYLQINNLRAEDTAIYYCAIQEKRELQLRRELDNYWGQGTLVTVSS
VL: PYELTQPPSVSLSPGQTARITCSGDALPKKYAYWYQQKSGQAPVLVIYEDSKRPSGIPERFSGSSSGTTATLTISGAQVDDEGDYYCYSPDSSGNVWVFGGGTKLTVLG
notes: as for B5
binding result [6]: binds
binding result [7]: binds

B8: TMEL1038 (antibody, V domains shown)
VH: QVQLVQSGAEVKKPGASVKVSCQASGYTFTGYYIHWVRQAPGQGLEWMGWINPNSGGTNYAQKFQGRVTMTRDTSISTAHMELGRLRSDDTAVYYCATPPSRYGGNYYADYWGQGTLVTVSS
VL: ASALTQPASVSGSPGQSITISCTGTSSDVGGYNYVSWYQQHPGKAPQLMIFDVSNRPSGVSNRFSGSKSGDTASLTISGLQAEDEADYYCSSYTSSSTWVFGGGTKLTVLG
notes: as for B5
binding result [8]: binds

Further lines, results first:

binding result [1]: binds
B1: TMES1004 (antibody, V domains shown)
VH: QVQLVQSGAEVKKPGASVKISCKASGYTFTSHAIHWVRQAPGQTFEWLGWINPVNGVTKYSQTFQDRVTIVRDKSATTTYMDLSGLTFEDTAMYYCARVLDFYGSSVLDYWGQGTLVTVSS
VL: QSALTQPASVSGSPGQSITISCTGTSSDIGTYNLVSWYQQRPGKAPKLIIYDVIKRPSGISDRFSGSKSDNMASLTISGLQAEDEAHYYCCSYRSSTAPVVFGGGTKVTVL

binding result (PAGE family member 2): binds
binding result [2]: binds
B2: TMEL1035 (antibody, V domains shown)
VH: QVQLVESGGGVVQPGRSLRLSCAASGFTFSSYAMHWVRQAPGKGLEWVAVISYDGSNKYYADSVKGRFTISRDNSKNTLYLQMNSLRAEDTAVYYCASPIAVAAPFAYWGQGTLVTVSS
VL: VSSELTQDPAVSVALGQTVRITCQGDSLRSYYASWYQQKPGQAPVLVIYGKNNRPSGIPDRFSGSSSGNTASLTITGAQAEDEADYYCNSRDSSGNLYVFGTGTKVTVLG
notes: as for B5

binding result [3]: binds
B3: TOVA1002 (antibody, V domains shown)
VH: QVQLVESGGGVVQPGRSLRLSCAASGFTFSNFAMHWVRQAPGKGLEWVVVISSDGSNKNYADSVKGRFTISRDNSKNTLYLQMNSLRAEDTAVYYCARDLGVGSTTYWGQGTLVTVSS
VL: SYVLTQPPSVSVAPGQTARITCGGNNIGSKSVHWYQQKPGQAPVLVVYDDSDRPSGIPERFSGSNSGNTATLTISRVEAGDEADYYCQVWDGYSDPLVFGGGTKLTVLG

binding result [4]: binds
B4: TMEL1040 (antibody, V domains shown)
VH: EVQLVQSGAEVKKPGESLKISCKGSGYSFTTYWIAWVRQMPGKGLEWMGIIYPADSDTRYSPSFQGQVTMSADQSINTAYLQWSSLKASDTAMYYCARRGREFDYWGQGTLLTVSS
VL: QSALTQPASVSGSPGQSITISCTGTSSDVGSYNLVSWYQQHPGKAPKLMIYEGSKRPSGVSNRFSGSKSGNTASLTISGLQAEDEADYYCCSYAGSSTPWVFGGGTKLTVL
notes: as for B5
